Test results taken from US20100221183A1, “PEPTIDES FOR TREATING AND DIAGNOSING CANCERS AND METHODS FOR USING THE SAME” (priority 2006, published 2010).
Entries after “also recorded” stand apart in the source; their conditions may differ. Where no end group is shown, it is not given here. The star is where a group is joined. Biotin = O=C1N[C@H]2[C@H](CS[C@H]2CCCCC(=O)*)N1

B1: synthetic epitope of Hsc71 (GIPPAPRGVPQIEVTF) (peptide)
peptide: Biotin-GIPPAPRGVPQIEVTF
notes: Amino acids 463-478 of Hsc71, synthesized with N-terminal biotin
B2: PanC (DYWDTSWPLLLFGGGC) (peptide)
peptide: DYWDTSWPLLLFGGGC
modifications: also: radiolabeled with 99mTc, site not given here, unlabeled form also used
notes: also called peptide PanC

Experiments:
NCI-H460 (lung cancer) = assay: Cell internalization of fluorescein labeled peptide (fluorescent microscopy); assay type: cell-based; conditions: 25 μM peptide, one hour at 37C
Protocol: (§1) […], DU-145, and CCD-1070Sk were grown in culture as detailed above. Cells were grown on coverslips in 6 well plates. A 25 μM solution of peptide […]-fluorescein (PanF; SEQ ID NO:12) was prepared in modified Eagle's medium. Cell culture media were replaced with 1.6 mL of peptide-containing medium, and the cells were incubated with peptide for one hour at 37C. Medium was removed and cells were washed three times with PBS. Two mL of 2% formaldehyde in PBS was added to each well, and plates were kept on ice for 15 minutes. Cells were washed with cold PBS three times and rinsed with distilled water. Coverslips were mounted with DAPI containing media and viewed with an Olympus BX51 fluorescent microscope and DP70 digital camera with excitation and emission wavelengths of 490 and 520 nm.

DU-145 (prostate cancer) = assay: as above; assay type: cell-based; conditions: prostate cancer DU-145; 25 μM peptide, one hour at 37C
Protocol: as §1

CCD-1070Sk (fibroblasts) = assay: as above; assay type: cell-based; conditions: fibroblasts CCD-1070Sk; 25 μM peptide, one hour at 37C
Protocol: as §1

Hsp70 = biological target: T1, Hsp70 (Homo sapiens, UniProt P0DMV8); assay: Binding competition between epitope of Hsc71 and Hsp70 for 99m-Tc labeled PanC; conditions: various concentrations of epitope, constant 99m-Tc labeled PanC, 1 hour at room temperature
T1 construct: purchased BioVision, Mountain View, Calif
T1 sequence (P0DMV8 whole entry): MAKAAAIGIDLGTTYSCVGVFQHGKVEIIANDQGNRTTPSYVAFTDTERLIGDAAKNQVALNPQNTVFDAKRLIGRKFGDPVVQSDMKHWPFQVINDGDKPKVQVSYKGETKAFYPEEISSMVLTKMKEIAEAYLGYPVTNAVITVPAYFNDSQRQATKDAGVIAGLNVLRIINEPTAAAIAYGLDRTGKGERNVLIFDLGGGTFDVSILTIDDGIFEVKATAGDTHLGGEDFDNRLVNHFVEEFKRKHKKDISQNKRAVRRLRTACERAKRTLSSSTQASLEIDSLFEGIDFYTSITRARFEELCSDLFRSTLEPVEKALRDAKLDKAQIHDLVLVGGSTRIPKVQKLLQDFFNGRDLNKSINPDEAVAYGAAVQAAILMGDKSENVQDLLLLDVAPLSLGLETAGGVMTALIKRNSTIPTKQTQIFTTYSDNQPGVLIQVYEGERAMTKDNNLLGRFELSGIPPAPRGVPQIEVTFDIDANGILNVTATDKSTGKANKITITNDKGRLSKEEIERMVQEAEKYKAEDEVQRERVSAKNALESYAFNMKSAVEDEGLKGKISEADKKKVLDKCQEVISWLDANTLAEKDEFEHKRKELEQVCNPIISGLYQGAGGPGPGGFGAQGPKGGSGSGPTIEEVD

BSA = BSA (Bos taurus, UniProt P02769); assay: Binding competition control: 99m-Tc labeled PanC on BSA coated wells; conditions: various concentrations of epitope, constant 99m-Tc labeled PanC, 1 hour at room temperature
Chain of BSA (P02769 25-607): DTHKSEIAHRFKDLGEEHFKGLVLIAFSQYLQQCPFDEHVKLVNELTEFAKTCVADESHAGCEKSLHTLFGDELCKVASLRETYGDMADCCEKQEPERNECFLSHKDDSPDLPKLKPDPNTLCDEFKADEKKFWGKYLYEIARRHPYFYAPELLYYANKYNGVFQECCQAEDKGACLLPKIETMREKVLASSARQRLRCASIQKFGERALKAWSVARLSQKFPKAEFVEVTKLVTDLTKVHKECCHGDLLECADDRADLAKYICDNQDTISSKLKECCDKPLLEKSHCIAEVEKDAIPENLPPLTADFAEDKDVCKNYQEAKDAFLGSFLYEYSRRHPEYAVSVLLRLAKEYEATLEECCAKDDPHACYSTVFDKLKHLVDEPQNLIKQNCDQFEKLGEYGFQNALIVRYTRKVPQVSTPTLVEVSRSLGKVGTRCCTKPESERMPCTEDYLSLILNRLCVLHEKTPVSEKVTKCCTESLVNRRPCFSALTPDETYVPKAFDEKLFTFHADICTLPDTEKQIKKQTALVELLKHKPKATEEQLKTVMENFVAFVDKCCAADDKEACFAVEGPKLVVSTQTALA

PanC (DYWDTSWPLLLFGGGC) = biological target: B2; assay: competition: epitope peptide at various concentrations against Hsp70-coated wells for 99mTc-PanC; competitor Hsp70
Protocol: A 96 well plate was prepared by coating each well with Hsp70 (BioVision, Mountain View, Calif.) or BSA (control) by adding 0.5 μg/well in 100 µL of PBS and incubating overnight at 4C. The next day, each well was washed 3× with PBS. […] At the end of incubation, each well was washed 3× with PBS.

[1] = biological target: B1; assay: 99mTc-PanC (20 nM) with 100 uM biotinylated epitope and unlabeled PanC, Neutravidin bead pull-down, gamma counting

DYWDTSWPLLLFGGGSK (SEQ ID NO:12; PanF) (Flourescein)-amide (DYWDTSWPLLLFGGGSK-NH2; also: fluorescein label, site not given here)
cellular uptake (internalization) by fluorescent microscopic visualization (NCI-H460 (lung cancer)): significant cellular uptake; also recorded: Significant internalization | cellular uptake (internalization) by fluorescent microscopic visualization (DU-145 (prostate cancer)): significant cellular uptake; also recorded: Significant internalization | cellular uptake (internalization) by fluorescent microscopic visualization (CCD-1070Sk (fibroblasts)): significant uptake wasn't seen; also recorded: but not fibroblasts

DYWDTSWPLLLFGGGS(KFAKFAK)3 [PanL]
cell death (percent cytotoxicity) (lung cancer (NCI-H460)): dose dependent increase in cell death | cell death (percent cytotoxicity) (prostate cancer (DU-145)): dose dependent increase in cell death

GIPPAPRGVPQIEVTF (not fully specified (N-terminus)) [synthetic epitope of Hsc71, Conserved region, amino acids 463-478 of Hsc71]
suppression of PanC binding to Hsp70 by the epitope (Hsp70): suppressed binding of PanC to Hsp70 in a concentration dependent manner | suppression of PanC binding to Hsp70 by the epitope (Hsp70; listed as Hsc71 epitope): interferes with PanC binding to Hsp70 in a concentration dependent manner | suppression of PanC binding to albumin (BSA control) by the epitope (BSA): suppressed binding of PanC to albumin approximately equally at all concentrations | suppression of PanC binding to albumin (BSA control) by the epitope (BSA; listed as Hsc71 epitope): suppresses binding of PanC to BSA approximately equally at all concentrations

B1
binding result (PanC (DYWDTSWPLLLFGGGC)): binds

B2
labeled/unlabeled PanC ratio above which binding saturates [1]: > 0.1%
